From the supplement of paper PMC7877785 come the findings set out here.

± gives the uncertainty stated by the source.

This data set is described as follows: self-splicing fitness, log relative to wild type (ln ratio); higher = more splicing; Tetrahymena group I intron in knt gene, E. coli kanamycin selection, DiMSum; sequences stand for … in CUCUCU…GGAGGGAAAAGUUAUCAGGCAUGCACCUGGUAGCUAGUCUUUAAACCAAUAGAUUGCAUCGGUUUAAAAGGCAAGACCGUCAAAUUGCGGGAAAGGGGUCAACAGCCGUUCAGUACCAAGUCUCAGGGGAAACUUUGAGAUGGCCUUGCAAAGGGUAUGGUAAUAAGCUGACGGACAUGGUCCUAACCACGCAGCCAAGUCCUAAGUCAACAGAUCUUCUGUUGAUAUGGAUGCAGUUCACAGACUAAAUGUCGGUCGGGGAAGAUGUAUUCUUCUCAUAAGAUAUAGUCGGACCUCUCCUUAAUGGGAGCUAGCGGAUGAAGUGAUGCAACACUGGAGCCGCUGGGAACUAAUUUGUAUGCGAAAGUAUAUUGAUUAGUUUUGGAGUACUCGUGGUCG
The method in brief: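 A randomised library covering all eight P1ex-region intron nucleotides was built with the intron in the knt kanamycin-resistance gene on pET-22b(+) and held in E. coli BL21(DE3). Cells were grown overnight at 37°C or 30°C on LB agar, with or without 25 μg/mL kanamycin, plus 100 μg/mL carbenicillin, 50 μM IPTG and 0.2% rhamnose, and pooled colonies were amplicon-sequenced on an Illumina HiSeq 2500. DiMSum fitness is the error-weighted combination of wild-type-normalised replicate fold changes, kanamycin versus none.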

For the sequence ACAAAGCAAUAUUACGUCCU, the “self-splicing fitness (ln)” value (30 °C) was -0.488 ± 0.07 and the “self-splicing fitness (ln)” value (37 °C) is -0.399 ± 0.08.

With GAAGAGCAAUAUUACGACUC, the “self-splicing fitness (ln)” value was -0.32 ± 0.095 (30 °C) and -0.113 ± 0.11 (37 °C).

As for AUUCAGCAAUAUUACGUGCG, the “self-splicing fitness (ln)” value was -0.448 ± 0.095 (30 °C) and -0.262 ± 0.13 (37 °C).

UGCAAGCAAUAUUACGUGAC: the “self-splicing fitness (ln)” value is, setting by setting: (30 °C) -2.65 ± 0.39; (37 °C) -2.19 ± 0.28.

For CUAGAGCAAUAUUACGAAUG, the “self-splicing fitness (ln)” value runs as follows: (30 °C) 0.298 ± 0.095; (37 °C) 0.533 ± 0.11.

For GUUUAGCAAUAUUACGAGGU, the “self-splicing fitness (ln)” value is -3.03 ± 0.2 (30 °C) and -2.03 ± 0.2 (37 °C).

As to UCGGAGCAAUAUUACGUGCC, the “self-splicing fitness (ln)” value was -3.26 ± 0.34 (30 °C) and -2.53 ± 0.45 (37 °C).

GUCUAGCAAUAUUACGGCAC: the “self-splicing fitness (ln)” value was -0.276 ± 0.14 (30 °C) and 0.385 ± 0.13 (37 °C).

For the sequence AUCAAGCAAUAUUACGGUAC, the “self-splicing fitness (ln)” value (30 °C) was -3.8 ± 0.23 and the “self-splicing fitness (ln)” value (37 °C) was -0.246 ± 0.12.

As to UGAUAGCAAUAUUACGAGAU, the “self-splicing fitness (ln)” value by setting is: (30 °C) -3.87 ± 0.43; (37 °C) -1.92 ± 0.3.

For GAUGAGCAAUAUUACGCUCG, the “self-splicing fitness (ln)” value by setting is: (30 °C) -3.02 ± 0.3; (37 °C) -2.75 ± 0.38.

GUAUAGCAAUAUUACGGUUG: the “self-splicing fitness (ln)” value is -3.77 ± 0.3 (30 °C) and -1.35 ± 0.3 (37 °C).

For GAACAGCAAUAUUACGCGGA, the “self-splicing fitness (ln)” value was -1.94 ± 0.082 (30 °C) and -0.737 ± 0.075 (37 °C).

With CGGGAGCAAUAUUACGACGG, the “self-splicing fitness (ln)” value is, setting by setting: (30 °C) -1.4 ± 0.23; (37 °C) -0.65 ± 0.42.

For AACGAGCAAUAUUACGUAGC, the “self-splicing fitness (ln)” value is, setting by setting: (30 °C) -3.51 ± 0.19; (37 °C) -2.44 ± 0.17.

Regarding CUCAAGCAAUAUUACGCGAA, the “self-splicing fitness (ln)” value (37 °C) was -1.79 ± 0.22.

For GUAAAGCAAUAUUACGCGGC, the “self-splicing fitness (ln)” value reads like this: (30 °C) -2.96 ± 0.21; (37 °C) -0.672 ± 0.18.

Consider AACAAGCAAUAUUACGCGUG, for which the “self-splicing fitness (ln)” value reads like this: (30 °C) -1.35 ± 0.04; (37 °C) -0.814 ± 0.056.

On to CACGAGCAAUAUUACGUAAG, for which the “self-splicing fitness (ln)” value is -3.62 ± 0.14 (30 °C) and -1.82 ± 0.11 (37 °C).

On to UACGAGCAAUAUUACGAUAC, for which the “self-splicing fitness (ln)” value (30 °C) is -3.5 ± 0.19 and the “self-splicing fitness (ln)” value (37 °C) is -1.61 ± 0.13.

For CCCAAGCAAUAUUACGGGGU, the “self-splicing fitness (ln)” value was -3.46 ± 0.12 (30 °C) and -2.35 ± 0.16 (37 °C).

As to GUACAGCAAUAUUACGUCGU, the “self-splicing fitness (ln)” value reads like this: (30 °C) -1.34 ± 0.11; (37 °C) 0.338 ± 0.11.

On to UGCUAGCAAUAUUACGUAAA, for which the “self-splicing fitness (ln)” value (30 °C) was -1.9 ± 0.094 and the “self-splicing fitness (ln)” value (37 °C) is -1.6 ± 0.13.

Consider ACCGAGCAAUAUUACGAUAC, for which the “self-splicing fitness (ln)” value is, setting by setting: (30 °C) -4.32 ± 0.36; (37 °C) -2.09 ± 0.27.

Regarding CACUAGCAAUAUUACGGGUU, the “self-splicing fitness (ln)” value (30 °C) is -2.05 ± 0.076 and the “self-splicing fitness (ln)” value (37 °C) was -1.28 ± 0.095.

AGCUAGCAAUAUUACGUAAA: the “self-splicing fitness (ln)” value by setting is: (30 °C) -3.11 ± 0.19; (37 °C) -1.14 ± 0.16.

CCAUAGCAAUAUUACGGGCG: the “self-splicing fitness (ln)” value reads like this: (30 °C) -1.02 ± 0.097; (37 °C) -0.644 ± 0.11.

Take UUUCAGCAAUAUUACGCUCC: the “self-splicing fitness (ln)” value runs as follows: (30 °C) -1.69 ± 0.22; (37 °C) -1.02 ± 0.29.

As to AGGCAGCAAUAUUACGUGGG, the “self-splicing fitness (ln)” value is, setting by setting: (30 °C) -2.95 ± 0.095; (37 °C) -2.97 ± 0.15.

Turning to AACCAGCAAUAUUACGCGUC, the “self-splicing fitness (ln)” value (30 °C) is -2.08 ± 0.089 and the “self-splicing fitness (ln)” value (37 °C) was -1.12 ± 0.095.

Turning to GCGCAGCAAUAUUACGCGCG, under “30 °C”, the “self-splicing fitness (ln)” value was -3.1 ± 0.32.

For GGAAAGCAAUAUUACGAAAG, the “self-splicing fitness (ln)” value (30 °C) was -4.01 ± 0.35 and the “self-splicing fitness (ln)” value (37 °C) was -3.08 ± 0.35.

Take UAAGAGCAAUAUUACGGGGC: the “self-splicing fitness (ln)” value reads like this: (30 °C) -4 ± 0.42; (37 °C) -2.83 ± 0.32.

Turning to GGCGAGCAAUAUUACGGACU, the “self-splicing fitness (ln)” value is -0.419 ± 0.077 (30 °C) and -0.219 ± 0.13 (37 °C).

For the sequence GAAUAGCAAUAUUACGCAGG, the “self-splicing fitness (ln)” value (30 °C) was -2.6 ± 0.2 and the “self-splicing fitness (ln)” value (37 °C) was -2.28 ± 0.21.

As to CCGAAGCAAUAUUACGUUUU, the “self-splicing fitness (ln)” value (30 °C) was -3.83 ± 0.17 and the “self-splicing fitness (ln)” value (37 °C) is -3.26 ± 0.18.

For the sequence CUCUAGCAAUAUUACGAAUC, where the note is “37 °C”, the “self-splicing fitness (ln)” value is -3.69 ± 0.39.

Regarding UUUAAGCAAUAUUACGUUGC, the “self-splicing fitness (ln)” value reads like this: (30 °C) -3.26 ± 0.43; (37 °C) -2.97 ± 0.38.
